Reference: article PMC8017197 (Frontiers in Immunology, 2021)

Biological target: T1, linear (M1)-tetraubiquitin (UniProt P0CG48 1-76; P0CG48 1-76; P0CG48 1-76; P0CG48 1-76)
T1 construct: ubiquitin, first of four units joined head to tail (Met1-linked); ubiquitin, second unit; ubiquitin, third unit; ubiquitin, fourth unit; Four ubiquitins on one chain, N-terminal Met1 linked to the C-terminus of the unit before; also called linear (M1)-linked tetraubiquitin; source: bought: Boston Biochem
Assay: pull-down; GST-fusion proteins with tetraubiquitin (3.4 μg), then glutathione Sepharose at 4°C 1 h; bound ubiquitin detected by anti-ubiquitin immunoblotting
Settings: both partners purified

T1 sequence (P0CG48 1-304, one chain of several): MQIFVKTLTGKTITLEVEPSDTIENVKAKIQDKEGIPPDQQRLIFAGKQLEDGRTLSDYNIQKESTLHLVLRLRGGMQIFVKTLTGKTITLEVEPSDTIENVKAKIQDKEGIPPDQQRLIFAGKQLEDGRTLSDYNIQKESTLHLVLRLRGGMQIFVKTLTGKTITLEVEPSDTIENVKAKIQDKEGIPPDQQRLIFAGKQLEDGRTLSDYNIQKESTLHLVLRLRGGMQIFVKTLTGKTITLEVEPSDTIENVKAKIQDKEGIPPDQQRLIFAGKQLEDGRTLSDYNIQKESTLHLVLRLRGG

B1: GST-fused UBZ domain (a.a. 394-446) of NDP52 (domain or fragment, human, UniProt Q13137 394-446, looked up)
chain: IKKCPICKADDICDHTLEQQQMQPLCFNCPICDKIFPATEKQIFEDHVFCHSL
notes: NDP52 (CALCOCO2), human, UBZ domain, a.a; Vector pGEX6p-1; also called GST-fused NDP52-UBZ domain; source: E. coli BL21 (DE3)pLysS, purified with a GSTrap column
Does B1 bind?
Result: binds
